Reference: patent US20040219163

Target: prostate-specific antigen (PSA) (UniProt P07288)
Sequence (P07288 25-261): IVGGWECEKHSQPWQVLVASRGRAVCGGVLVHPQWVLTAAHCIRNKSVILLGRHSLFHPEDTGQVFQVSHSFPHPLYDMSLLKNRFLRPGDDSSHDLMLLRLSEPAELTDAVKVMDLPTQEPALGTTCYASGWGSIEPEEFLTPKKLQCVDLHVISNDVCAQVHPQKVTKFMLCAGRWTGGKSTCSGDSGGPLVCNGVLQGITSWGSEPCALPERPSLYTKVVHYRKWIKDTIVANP

Human glandular kallikrein (hK2)
PSA enzymatic activity on chromogenic substrate S-2586 (absorbance at 405 nm); 100 ng hK2 added to 2.5 ug PSA from L1/PSA/IL2 supernatant: The activity of PSA is increased 500% when incubated with hK2
